For the data set, the system named is TetR. The experiment in a line: SPR. The note with it: streptavidin surface, promoters at 30-50 RU, TetR 4-62 nM, regeneration with 1 M NaCl and 1 M MgCl2, running buffer, pH and temperature not given in the ….
A word on the Kd: it is the concentration at which binding is half-saturated. Read a high Kd as a looser complex. “CGCGCGCCTTTCTGCGTTTATATACTAGAGTCCCTATCAGTGATAGAGATTGACATCCCTATCAGTGATAGATATAATGAGCACTACTAGAGTAGTGGAGGTTACTAGATGGTGAGCAAGGGCGAGGAGCTGTTCACCGGGGTGGTGCCCATCCTGCGCG (double strand) [L12 promoter]” registered a Kd of 8 nM. To “CGCGCGCCTTTCTGCGTTTATATACTAGAGTCCCTATCAGTGATAGAGATTGACATCCCTATCAGTGATAGATATAATGCGCACTACTAGAGTAGTGGAGGTTACTAGATGGTGAGCAAGGGCGAGGAGCTGTTCACCGGGGTGGTGCCCATCCTGCGCG (double strand) [L09 promoter]” belongs 6 nM; to “CGCGCGCCTTTCTGCGTTTATATACTAGAGTCCCTATCAGTGATAGAGATTGACATCCCTATCAGTGATAGATATAATGGGCACTACTAGAGTAGTGGAGGTTACTAGATGGTGAGCAAGGGCGAGGAGCTGTTCACCGGGGTGGTGCCCATCCTGCGCG (double strand) [L11 promoter]”, 6 nM.

“CGCGCGCCTTTCTGCGTTTATATACTAGAGTCCCTATCAGTGATAGAGATTGACATCCCTATCAGTGATAGATATAATGTGCACTACTAGAGTAGTGGAGGTTACTAGATGGTGAGCAAGGGCGAGGAGCTGTTCACCGGGGTGGTGCCCATCCTGCGCG (double strand) [L10 promoter]” returned a Kd of 5 nM.

Values taken from publication PMC4575469.
